Results reported in paper PMC3359377, “A Novel Tool for Studying Auxin-Metabolism: The Inhibition of Grapevine Indole-3-Acetic Acid-Amido Synthetases by a Reaction Intermediate Analogue” (PLoS ONE, 2012).
Each block holds one molecule with its values, some of them ahead of it.

Key:
GH3-1 = biological target: T1, GH3-1 (Vitis vinifera, UniProt F6H697); experiment: IAA-Asp formation by LC-ESI-MS/MS with recombinant enzyme; Dixon plots; type: biochemical
T1 construct: gene GH3.1_2
T1 sequence (F6H697 1-598): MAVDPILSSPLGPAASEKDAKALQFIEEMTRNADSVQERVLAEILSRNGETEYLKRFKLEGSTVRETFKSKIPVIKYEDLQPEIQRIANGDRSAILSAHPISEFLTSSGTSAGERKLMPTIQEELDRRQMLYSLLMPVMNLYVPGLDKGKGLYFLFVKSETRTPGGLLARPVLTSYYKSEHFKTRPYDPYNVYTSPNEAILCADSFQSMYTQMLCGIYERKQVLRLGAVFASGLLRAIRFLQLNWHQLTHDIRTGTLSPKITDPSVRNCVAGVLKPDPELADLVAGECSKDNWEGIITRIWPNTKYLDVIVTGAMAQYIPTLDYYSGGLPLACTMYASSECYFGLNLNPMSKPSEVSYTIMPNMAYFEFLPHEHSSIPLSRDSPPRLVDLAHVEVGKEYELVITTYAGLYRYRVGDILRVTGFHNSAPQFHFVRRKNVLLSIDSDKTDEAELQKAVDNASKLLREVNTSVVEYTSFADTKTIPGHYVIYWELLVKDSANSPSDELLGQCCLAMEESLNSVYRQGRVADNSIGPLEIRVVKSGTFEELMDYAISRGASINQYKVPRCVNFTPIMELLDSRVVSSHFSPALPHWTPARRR

[1] = substrate: Nc1ncnc2c1ncn2[C@@H]1O[C@H](COP(=O)(O)OP(=O)(O)OP(=O)(O)O)[C@@H](O)[C@H]1O; experiment: Michaelis-Menten kinetics (Km), LC-ESI-MS/MS of IAA-Asp; type: biochemical, Vitis vinifera; details: Mg2+ catalytic site
[2] = substrate: O=C(O)Cc1c[nH]c2ccccc12; experiment: as above; type: biochemical, Vitis vinifera; details: MgATP catalytic site

- Ki (GH3-1): 200 nM
Molecule: Nc1ncnc2c1ncn2[C@@H]1O[C@H](COP(=O)(O)OCCc2c[nH]c3ccccc23)[C@@H](O)[C@H]1O [AIEP, adenosine-5′-[2-(1H-indol-3-yl)ethyl]phosphate]

B1: GH3-1 (Vitis vinifera) (protein)
chain: T1 sequence (F6H697 1-598)
- Km [1]: 13.2 ± 1.4 µM
- Vmax [1]: 0.261 µmol/min/mg
- kcat [1]: 0.3 s⁻¹
- Km [2]: 21.1 ± 1.4 µM
- Vmax [2]: 0.384 µmol/min/mg
- kcat [2]: 0.442 s⁻¹
